From patent publication US20210285949A1

Target: human recombinant adrenomedullin receptor (CRLR+RAMP3) (human)

IC50 (read off the curve); cAMP HTRF assay, agonist 5.63 nM hADM: 200 nM
Substance: antagonist (human ADM 22-52) (from UniProt P35318) (peptide)
